Measured values from the array DNA melting data of Ke et al..

Assay: melting temperature; melt of duplexes
Conditions: sodium 0.0675 M; strand 1 µM
With “CGACGTGCATCATGTGCTG+CAGCACATCTCGCACGTCG ((((((((...((((((((+))))))))...))))))))” the Tm was 46.5 °C.
“CGACGTGCCCCATGTGCTG+CAGCACATTGCGCACGTCG ((((((((.(.((((((((+)))))))).).))))))))” gave a Tm of 48.2 °C.
“CGACGTGCCCAATGTGCTG+CAGCACATAACGCACGTCG ((((((((...((((((((+))))))))...))))))))” gave a Tm of 47.3 °C.
Work on “CGACGTGCTTTATGTGCTG+CAGCACATCTCGCACGTCG ((((((((...((((((((+))))))))...))))))))” yielded a Tm of 46.5 °C.
In the case of “CGACGTGCCACATGTGCTG+CAGCACATTTCGCACGTCG ((((((((.(.((((((((+)))))))).).))))))))”, the Tm is reported as 47.3 °C.
For “CGACGTGCCGCATGTGCTG+CAGCACATAACGCACGTCG ((((((((...((((((((+))))))))...))))))))”, the Tm was 48.3 °C.
“CGACGTGCTGGATGTGCTG+CAGCACATATGGCACGTCG ((((((((...((((((((+))))))))...))))))))” showed a Tm of 52.7 °C.
Substance “CGACGTGCTCGATGTGCTG+CAGCACATCGCGCACGTCG ((((((((.((((((((((+)))))))))).))))))))” has a Tm of 59.6 °C.
“CGACGTGCGCGATGTGCTG+CAGCACATGCCGCACGTCG (((((((((..((((((((+))))))))..)))))))))” showed a Tm of 55.9 °C.
“CGACGTGCAACATGTGCTG+CAGCACATAAAGCACGTCG ((((((((...((((((((+))))))))...))))))))” showed a Tm of 48.9 °C.
With “CGACGTGCCCCATGTGCTG+CAGCACATGCCGCACGTCG ((((((((..(((((((((+)))))))))..))))))))” the Tm was 50.3 °C.
“CGACGTGCATAATGTGCTG+CAGCACATAACGCACGTCG ((((((((.(.((((((((+)))))))).).))))))))” showed a Tm of 48.8 °C.
Work on “CGACGTGCGAGATGTGCTG+CAGCACATCATGCACGTCG ((((((((..(((((((((+)))))))))..))))))))” yielded a Tm of 56.7 °C.
With “CGACGTGCTAAATGTGCTG+CAGCACATTTGGCACGTCG ((((((((.((((((((((+)))))))))).))))))))” the Tm was 57.9 °C.
With “CGACGTGCGACATGTGCTG+CAGCACATTCTGCACGTCG ((((((((...((((((((+))))))))...))))))))” the Tm was 51.3 °C.
Substance “CGACGTGCTATATGTGCTG+CAGCACATCATGCACGTCG ((((((((...((((((((+))))))))...))))))))” has a Tm of 50.2 °C.
“CGACGTGCTGGATGTGCTG+CAGCACATCCAGCACGTCG (((((((((((((((((((+)))))))))))))))))))” showed a Tm of 65.5 °C.
In the case of “CGACGTGCGAGATGTGCTG+CAGCACATTATGCACGTCG ((((((((...((((((((+))))))))...))))))))”, the Tm is reported as 51.6 °C.
In the case of “CGACGTGCCCCATGTGCTG+CAGCACATAACGCACGTCG ((((((((...((((((((+))))))))...))))))))”, the Tm is reported as 45.7 °C.
With “CGACGTGCAGCATGTGCTG+CAGCACATGCAGCACGTCG ((((((((.((((((((((+)))))))))).))))))))” the Tm was 60.8 °C.
“CGACGTGCGTTATGTGCTG+CAGCACATTGCGCACGTCG (((((((((..((((((((+))))))))..)))))))))” showed a Tm of 55.7 °C.
In the case of “CGACGTGCATTATGTGCTG+CAGCACATGATGCACGTCG ((((((((((.((((((((+)))))))).))))))))))”, the Tm is reported as 58.1 °C.
“CGACGTGCGGCATGTGCTG+CAGCACATCAGGCACGTCG ((((((((...((((((((+))))))))...))))))))” gave a Tm of 51 °C.
Substance “CGACGTGCGGGATGTGCTG+CAGCACATTTAGCACGTCG ((((((((...((((((((+))))))))...))))))))” has a Tm of 53.4 °C.
Work on “CGACGTGCAAAATGTGCTG+CAGCACATCGCGCACGTCG ((((((((...((((((((+))))))))...))))))))” yielded a Tm of 48.9 °C.
“CGACGTGCACTATGTGCTG+CAGCACATTAAGCACGTCG ((((((((...((((((((+))))))))...))))))))” gave a Tm of 44.3 °C.
Work on “CGACGTGCACAATGTGCTG+CAGCACATCAAGCACGTCG ((((((((...((((((((+))))))))...))))))))” yielded a Tm of 46.2 °C.
Work on “CGACGTGCAAGATGTGCTG+CAGCACATTGGGCACGTCG ((((((((...((((((((+))))))))...))))))))” yielded a Tm of 51.5 °C.
With “CGACGTGCGCGATGTGCTG+CAGCACATCGTGCACGTCG ((((((((.((((((((((+)))))))))).))))))))” the Tm was 62.4 °C.
“CGACGTGCAGTATGTGCTG+CAGCACATACGGCACGTCG ((((((((.((((((((((+)))))))))).))))))))” showed a Tm of 58.3 °C.
With “CGACGTGCTACATGTGCTG+CAGCACATTGAGCACGTCG (((((((((..((((((((+))))))))..)))))))))” the Tm was 52.8 °C.
In the case of “CGACGTGCGCGATGTGCTG+CAGCACATTGCGCACGTCG ((((((((((.((((((((+)))))))).))))))))))”, the Tm is reported as 63.5 °C.
With “CGACGTGCGAAATGTGCTG+CAGCACATAGAGCACGTCG ((((((((...((((((((+))))))))...))))))))” the Tm was 56.2 °C.
In the case of “CGACGTGCATGATGTGCTG+CAGCACATTGTGCACGTCG (((((((((..((((((((+))))))))..)))))))))”, the Tm is reported as 53.2 °C.
“CGACGTGCATCATGTGCTG+CAGCACATGGTGCACGTCG (((((((((.(((((((((+))))))))).)))))))))” gave a Tm of 60.1 °C.
Work on “CGACGTGCCGAATGTGCTG+CAGCACATCGTGCACGTCG ((((((((...((((((((+))))))))...))))))))” yielded a Tm of 51.9 °C.
In the case of “CGACGTGCTACATGTGCTG+CAGCACATGCAGCACGTCG (((((((((.(((((((((+))))))))).)))))))))”, the Tm is reported as 58.1 °C.
For “CGACGTGCGGCATGTGCTG+CAGCACATCGGGCACGTCG ((((((((...((((((((+))))))))...))))))))”, the Tm was 49.6 °C.
Work on “CGACGTGCCCGATGTGCTG+CAGCACATGTTGCACGTCG ((((((((...((((((((+))))))))...))))))))” yielded a Tm of 48.1 °C.
“CGACGTGCATAATGTGCTG+CAGCACATCGGGCACGTCG ((((((((...((((((((+))))))))...))))))))” gave a Tm of 48.2 °C.
For “CGACGTGCTCCATGTGCTG+CAGCACATCCAGCACGTCG (((((((((..((((((((+))))))))..)))))))))”, the Tm was 48.7 °C.
Work on “CGACGTGCATTATGTGCTG+CAGCACATTAGGCACGTCG ((((((((.(.((((((((+)))))))).).))))))))” yielded a Tm of 51.9 °C.
“CGACGTGCTTGATGTGCTG+CAGCACATGTAGCACGTCG (((((((((..((((((((+))))))))..)))))))))” gave a Tm of 51.7 °C.
With “CGACGTGCCATATGTGCTG+CAGCACATCCCGCACGTCG ((((((((...((((((((+))))))))...))))))))” the Tm was 46.9 °C.
For “CGACGTGCTAAATGTGCTG+CAGCACATGGTGCACGTCG ((((((((...((((((((+))))))))...))))))))”, the Tm was 49.9 °C.
Substance “CGACGTGCAAGATGTGCTG+CAGCACATGGCGCACGTCG ((((((((...((((((((+))))))))...))))))))” has a Tm of 51.3 °C.
“CGACGTGCAGTATGTGCTG+CAGCACATTTAGCACGTCG ((((((((...((((((((+))))))))...))))))))” showed a Tm of 48.6 °C.
With “CGACGTGCACAATGTGCTG+CAGCACATTCGGCACGTCG ((((((((..(((((((((+)))))))))..))))))))” the Tm was 49.7 °C.
“CGACGTGCCTTATGTGCTG+CAGCACATGACGCACGTCG ((((((((.(.((((((((+)))))))).).))))))))” gave a Tm of 45.4 °C.
With “CGACGTGCTGAATGTGCTG+CAGCACATAGGGCACGTCG ((((((((...((((((((+))))))))...))))))))” the Tm was 50.7 °C.
Substance “CGACGTGCGGTATGTGCTG+CAGCACATAACGCACGTCG (((((((((.(((((((((+))))))))).)))))))))” has a Tm of 61.4 °C.
For “CGACGTGCCTTATGTGCTG+CAGCACATATCGCACGTCG ((((((((..(((((((((+)))))))))..))))))))”, the Tm was 49.9 °C.
“CGACGTGCTTGATGTGCTG+CAGCACATTATGCACGTCG ((((((((.(.((((((((+)))))))).).))))))))” showed a Tm of 51.9 °C.
“CGACGTGCCCAATGTGCTG+CAGCACATCTAGCACGTCG ((((((((...((((((((+))))))))...))))))))” showed a Tm of 48.8 °C.
With “CGACGTGCAGTATGTGCTG+CAGCACATACAGCACGTCG ((((((((.((((((((((+)))))))))).))))))))” the Tm was 57.4 °C.
In the case of “CGACGTGCTTGATGTGCTG+CAGCACATGAAGCACGTCG ((((((((((.((((((((+)))))))).))))))))))”, the Tm is reported as 56.6 °C.
“CGACGTGCCGCATGTGCTG+CAGCACATCCCGCACGTCG ((((((((.(.((((((((+)))))))).).))))))))” showed a Tm of 48.8 °C.
In the case of “CGACGTGCCTAATGTGCTG+CAGCACATGGCGCACGTCG ((((((((...((((((((+))))))))...))))))))”, the Tm is reported as 51.1 °C.
Work on “CGACGTGCGAAATGTGCTG+CAGCACATTCTGCACGTCG ((((((((..(((((((((+)))))))))..))))))))” yielded a Tm of 53.7 °C.
Substance “CGACGTGCTCGATGTGCTG+CAGCACATTAAGCACGTCG (((((((((..((((((((+))))))))..)))))))))” has a Tm of 51.9 °C.
With “CGACGTGCATCATGTGCTG+CAGCACATTCAGCACGTCG ((((((((...((((((((+))))))))...))))))))” the Tm was 47.8 °C.
“CGACGTGCTTTATGTGCTG+CAGCACATTGTGCACGTCG ((((((((...((((((((+))))))))...))))))))” gave a Tm of 45.1 °C.
In the case of “CGACGTGCGCGATGTGCTG+CAGCACATCCTGCACGTCG ((((((((..(((((((((+)))))))))..))))))))”, the Tm is reported as 54.4 °C.
Work on “CGACGTGCTTTATGTGCTG+CAGCACATCTTGCACGTCG ((((((((...((((((((+))))))))...))))))))” yielded a Tm of 48.5 °C.
Work on “CGACGTGCCGAATGTGCTG+CAGCACATGAGGCACGTCG (((((((((..((((((((+))))))))..)))))))))” yielded a Tm of 63.8 °C.
With “CGACGTGCGGGATGTGCTG+CAGCACATCGAGCACGTCG ((((((((..(((((((((+)))))))))..))))))))” the Tm was 58.1 °C.
“CGACGTGCGCGATGTGCTG+CAGCACATATAGCACGTCG ((((((((...((((((((+))))))))...))))))))” showed a Tm of 51.8 °C.
In the case of “CGACGTGCAAAATGTGCTG+CAGCACATACTGCACGTCG (((((((((..((((((((+))))))))..)))))))))”, the Tm is reported as 50.4 °C.
For “CGACGTGCTCGATGTGCTG+CAGCACATCATGCACGTCG ((((((((..(((((((((+)))))))))..))))))))”, the Tm was 54.1 °C.
Work on “CGACGTGCCGCATGTGCTG+CAGCACATATAGCACGTCG ((((((((...((((((((+))))))))...))))))))” yielded a Tm of 48.2 °C.
For “CGACGTGCAGTATGTGCTG+CAGCACATCACGCACGTCG ((((((((...((((((((+))))))))...))))))))”, the Tm was 50.9 °C.
“CGACGTGCGCCATGTGCTG+CAGCACATTGAGCACGTCG ((((((((.(.((((((((+)))))))).).))))))))” showed a Tm of 52.6 °C.
